In US20040116336A1, “Peptide derivatives” (priority 2002, published 2004):
Starred links: 1 amine or outer side, 2 acyl side, 3 side chain; linkers in the order of their positions; H or OH if unused. Non-standard residues stand in square brackets, D forms with d. No end group written: not given here. *: point of attachment. Phe(4-Cl) = N[C@@H](Cc1ccc(Cl)cc1)C(=O)O; Adipoyl = O=C(CCCCC(=O)[*:2])[*:1]; Cha = N[C@@H](CC1CCCCC1)C(=O)O; pGlu = O=C1CC[C@@H](C(=O)O)N1; Morpholide = C1CN(*)CCO1; Nle = CCCC[C@H](N)C(=O)O; Dap = NC[C@H](N)C(=O)O; Hexanoyl = CCCCCC(=O)*

B1: Arg-Pro-Arg-Ala-Ser-His-Lys-Gly-Pro-Cha-Pro-Phe(Cl) (peptide)
chain: RPRASHKGP[Cha]PX
modifications: not fully specified (residue 12); printed as Arg-Pro-Arg-Ala-Ser-His-Lys-Gly-Pro-Cha-Pro-Phe(Cl)
B2: Arg-Pro-Arg-Leu-Phe-His-Lys-Gly-Pro-Cha-Pro-Phe(Cl) (peptide)
chain: RPRLFHKGP[Cha]PX
modifications: not fully specified (residue 12); printed as Arg-Pro-Arg-Leu-Phe-His-Lys-Gly-Pro-Cha-Pro-Phe(Cl)
B3: pGlu-Arg-Pro-Arg-Leu-Ser-Phe-Lys-Gly-Pro-Met-Pro-Phe (peptide)
chain: XRPRLSFKGPMPF
modifications: N-terminal pGlu; peptide derivative; Xaa means pGlu
B4: Arg-Pro-Arg-Leu-Ser-Dap(C6)-Arg-Gly-Pro-Cha-Pro-Phe(Cl) (peptide)
peptide: RPRLS[Dap](Hexanoyl)RGP[Cha]P[Phe(4-Cl)]
B5: pGlu-Arg-Pro-Arg-Leu-Ser-His-Lys-Gly-Pro-Met-Cha (peptide)
chain: XRPRLSHKGPMX
modifications: N-terminal pGlu; C-terminal Cha; peptide derivative; Xaa on the 1st position means pGlu; Xaa on the 12th position means Cha
B6: Arg-Arg-Gln-Arg-Pro-Arg-Leu-Ser-Ala-Arg-Gly-Mor (peptide)
chain: RRQRPRLSARG-Morpholide
B7: Arg-Pro-Arg-Leu-Ser-Ala-Arg-Gly-Pro-Cha-Pro-Phe(Cl) (peptide)
chain: RPRLSARGP[Cha]PX
modifications: not fully specified (residue 12); printed as Arg-Pro-Arg-Leu-Ser-Ala-Arg-Gly-Pro-Cha-Pro-Phe(Cl)
B8: Arg-Pro-Arg-Leu-Phe-His-Lys-Gly-Pro-Cha-Pro-Phe (peptide)
chain: RPRLFHKGP[Cha]PF
B9: Arg-Pro-Arg-Leu-Ser-His-Lys-Gly-Pro-Met-Pro-Nal(2) (peptide)
chain: RPRLSHKGPMPX
modifications: C-terminal Nal(2); peptide derivative; Xaa means Nal(2)
B10: pGlu-Arg-Pro-Arg-Leu-Ser-Arg-Arg-Gly-Pro-Met-Pro-Phe (peptide)
chain: [pGlu]RPRLSRRGPMPF
B11: pGlu-Arg-Pro-Arg-Leu-Phe-Arg-Arg-Gly-Pro-Met-Pro-Phe (peptide)
chain: [pGlu]RPRLFRRGPMPF
B12: Arg-Pro-Arg-Leu-Phe-Ala-Arg-Gly-Pro-Cha-Pro-Phe(Cl) (peptide)
chain: RPRLFARGP[Cha]PX
modifications: not fully specified (residue 12); printed as Arg-Pro-Arg-Leu-Phe-Ala-Arg-Gly-Pro-Cha-Pro-Phe(Cl)
B13: pGlu-Arg-Pro-Arg-Leu-Ser-His-Leu-Gly-Pro-Met-Pro-Phe (peptide)
chain: XRPRLSHLGPMPF
modifications: N-terminal pGlu; peptide derivative; Xaa means pGlu
B14: pGlu-Arg-Pro-Arg-Leu-Ser-His-Lys-Gly-Pro-Cha-Pro-Phe (peptide)
chain: XRPRLSHKGPXPF
modifications: N-terminal pGlu; Cha non-natural residue; peptide derivative; Xaa on the 1st position means pGlu.; Xaa on the 11th position means Cha.
B15: pGlu-Arg-Pro-Arg-Leu-Ser-His-Lys-Gly-Pro-Met-Nal(2) (peptide)
chain: XRPRLSHKGPMX
modifications: N-terminal pGlu; C-terminal Nal(2); peptide derivative; Xaa on the 1st position means pGlu; Xaa on the 12th position means Nal(2)
B16: Arg-Pro-Arg-Leu-Ser-His-Lys-Gly-Pro-Met-Nal(2) (peptide)
chain: RPRLSHKGPMX
modifications: Nal(2) non-natural residue; peptide derivative; Xaa means Nal(2)
B17: pGlu-Arg-Pro-Arg-Leu-Ser-Leu-Lys-Gly-Pro-Met-Pro-Phe (peptide)
chain: XRPRLSLKGPMPF
modifications: N-terminal pGlu; peptide derivative; Xaa means pGlu
B18: Arg-Pro-Arg-Leu-Ser-Ala-Arg-Gly-Pro-Cha-Pro-Phe (peptide)
chain: RPRLSARGP[Cha]PF
B19: Arg-Pro-Arg-Leu-Ser-Dap(Adi)-Arg-Gly-Pro-Cha-Pro-Phe(Cl) (peptide)
peptide: RPRLS[Dap](Adipoyl)RGP[Cha]P[Phe(4-Cl)]
B20: Arg-Arg-Gln-Arg-Pro-Arg-Leu-Ser-His-Lys-Gly-Pro-Nle-Pro-Tyr (peptide)
chain: RRQRPRLSHKGP[Nle]PY
B21: Arg-Arg-Gln-Arg-Pro-Arg-Leu-Ser-Ala-Arg-Gly-Pro-Cha (peptide)
chain: RRQRPRLSARGPX
modifications: C-terminal Cha; peptide derivative; Xaa means Cha.
B22: Arg-Pro-Arg-Leu-Ser-His-Ala-Gly-Pro-Cha-Pro-Phe(Cl) (peptide)
chain: RPRLSHAGP[Cha]PX
modifications: not fully specified (residue 12); printed as Arg-Pro-Arg-Leu-Ser-His-Ala-Gly-Pro-Cha-Pro-Phe(Cl)
B23: Arg-Pro-Arg-Leu-Ser-His-Lys-Gly-Pro-Met-Cha (peptide)
chain: RPRLSHKGPMX
modifications: C-terminal Cha; peptide derivative; Xaa means Cha
B24: Arg-Pro-Arg-Leu-Ser-Ala-Arg-Gly-Pro-Cha-Phe(Cl) (peptide)
chain: RPRLSARGP[Cha]X
modifications: not fully specified (residue 11); printed as Arg-Pro-Arg-Leu-Ser-Ala-Arg-Gly-Pro-Cha-Phe(Cl)
B25: Arg-Arg-Lys(Arg-Arg)-Arg-Pro-Arg-Leu-Ser-His-Lys-Gly-Pro-Met-Pro-Phe (peptide)
chain: RRXRPRLSHKGPMPF
modifications: N-terminal branched Arg-Arg-Lys(Arg-Arg); peptide derivative; Xaa means Lys(Arg-Arg)
B26: Arg-Arg-Gln-Arg-Pro-Arg-Leu-Ser-His-Lys-Gly-Pro-Cha-Pro-Phe(Cl) (peptide)
chain: RRQRPRLSHKGP[Cha]PX
modifications: not fully specified (residue 15); printed as Arg-Arg-Gln-Arg-Pro-Arg-Leu-Ser-His-Lys-Gly-Pro-Cha-Pro-Phe(Cl)
B27: Arg-Pro-Arg-Leu-Phe-His-Lys-Gly-Pro-Cha-Phe(Cl) (peptide)
chain: RPRLFHKGP[Cha]X
modifications: not fully specified (residue 11); printed as Arg-Pro-Arg-Leu-Phe-His-Lys-Gly-Pro-Cha-Phe(Cl)
B28: Arg-Pro-Arg-Leu-Ser-His-Lys-Gly-Pro-Met-Pro-Cha (peptide)
chain: RPRLSHKGPMPX
modifications: C-terminal Cha; peptide derivative; Xaa means Cha
B29: Arg-Arg-Gln-Arg-Pro-Arg-Leu-Ser-Ala-Arg-Gly-NMe2 (peptide)
chain: RRQRPRLSARG-NMe2
B30: Arg-Pro-Ala-Leu-Ser-His-Lys-Gly-Pro-Cha-Pro-Phe(Cl) (peptide)
chain: RPALSHKGP[Cha]PX
modifications: not fully specified (residue 12); printed as Arg-Pro-Ala-Leu-Ser-His-Lys-Gly-Pro-Cha-Pro-Phe(Cl)
B31: pGlu-Arg-Pro-Arg-Leu-Ser-His-Phe-Gly-Pro-Met-Pro-Phe (peptide)
chain: XRPRLSHFGPMPF
modifications: N-terminal pGlu; peptide derivative; Xaa means pGlu
B32: pGlu-Arg-Pro-Arg-Leu-Ser-His-Arg-Gly-Pro-Met-Pro-Phe (peptide)
chain: XRPRLSHRGPMPF
modifications: N-terminal pGlu; peptide derivative; Xaa means pGlu
B33: Arg-Arg-Gln-Arg-Pro-Arg-Leu-Ser-His-Lys-Gly-Pro-Met(O) (peptide)
chain: RRQRPRLSHKGPX
modifications: oxidized C-terminal residue; peptide; Xaa means Met(O)
B34: pGlu-Arg-Pro-Arg-Leu-Ser-Ala-Lys-Gly-Pro-Met-Pro-Phe (peptide)
chain: XRPRLSAKGPMPF
modifications: N-terminal pGlu; peptide derivative; Xaa means pGlu
B35: pGlu-Arg-Pro-Arg-Leu-Phe-His-Lys-Gly-Pro-Met-Pro-Phe (peptide)
chain: XRPRLFHKGPMPF
modifications: N-terminal pGlu; peptide derivative; Xaa means pGlu
B36: pGlu-Arg-Pro-Arg-Leu-Ser-Arg-Lys-Gly-Pro-Met-Pro-Phe (peptide)
chain: XRPRLSRKGPMPF
modifications: N-terminal pGlu; peptide derivative; Xaa means pGlu

Key:
[1] = molecular target: APJ (orphan G protein-coupled receptor protein); test: radioligand competition, 125I-labelled compound of Ref. Ex. 1 (100 pM), CHO-A10 membrane fraction
[2] = molecular target: APJ (orphan G protein-coupled receptor protein); test: cell-based or functional assay
[3] = molecular target: APJ (orphan G protein-coupled receptor protein); test: radioligand competition, compound of Ref. Ex. 2 as labelled ligand, CHO-A10 membrane fraction

APJ (orphan G protein-coupled receptor protein), sequence (P35414 whole entry): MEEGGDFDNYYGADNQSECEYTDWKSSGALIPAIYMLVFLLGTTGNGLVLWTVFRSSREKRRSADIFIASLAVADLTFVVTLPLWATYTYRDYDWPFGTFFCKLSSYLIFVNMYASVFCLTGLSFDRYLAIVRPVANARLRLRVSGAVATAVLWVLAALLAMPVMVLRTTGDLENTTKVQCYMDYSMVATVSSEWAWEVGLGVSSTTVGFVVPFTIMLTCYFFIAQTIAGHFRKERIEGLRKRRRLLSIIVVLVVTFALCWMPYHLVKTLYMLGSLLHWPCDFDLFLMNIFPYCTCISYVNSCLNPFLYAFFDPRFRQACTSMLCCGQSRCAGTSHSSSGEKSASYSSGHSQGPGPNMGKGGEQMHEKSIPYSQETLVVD

Row | Binder | IC50 [1] [nM] | EC50, inhibition of forskolin-stimulated cAMP production (CHO-A10 clone 6 cells) [2] [nM] | IC50 [3] [nM]
1 | B1 | 0.52 | 0.52 | 0.17
2 | B2 | 2.7 | 1 | 0.29
3 | B3 |  | 0.24 | 0.95
4 | B4 | 1.1 | 1.1 | 0.45
5 | B5 |  | 0.3 | 1.3
6 | B6 |  | 1.2 | 0.26
7 | B7 | 1.2 | 0.51 | 0.13
8 | B8 | 8 | 0.46 | 0.13
9 | B9 |  | 0.1 | 0.35
10 | B10 |  | 0.069 | 0.73
11 | B11 |  | 0.15 | 0.81
12 | B12 | 2.3 | 1.2 | 0.38
13 | B13 |  | 0.16 | 3.6
14 | B14 | 13 | 0.35 | 0.16
15 | B15 |  | 0.52 | 1.4
16 | B16 |  | 0.37 | 0.61
17 | B17 |  | 0.16 | 0.59
18 | B18 | 2.2 | 0.59 | 0.084

Row | Binder | IC50 [1] [nM] | EC50, inhibition of forskolin-stimulated cAMP production (CHO-A10 clone 6 cells) [2] [nM] | IC50 [3] [nM]
19 | B19 | 0.42 | 0.42 | 0.13
20 | B20 | 2.7 | 0.28 | 0.027
21 | B21 | 1.4 | 0.55 | 0.046
22 | B22 | 0.58 | 0.58 | 0.22
23 | B23 |  | 0.22 | 0.51
24 | B24 | 1 | 0.65 | 0.1
25 | B25 | 2.9 | 0.57 | 0.84
26 | B26 | 0.47 | 0.53 | 0.33
27 | B27 |  | 0.43 | 0.54
28 | B28 |  | 0.71 | 3.5
29 | B29 |  | 0.49 | 0.16
30 | B30 | 0.41 | 0.41 | 0.15
31 | B31 |  | 0.3 | 2.6
32 | B32 |  | 0.2 | 0.4
33 | B33 |  | 0.48 | 0.62
34 | B34 |  | 0.22 | 0.21
35 | B35 |  | 0.22 | 0.99
36 | B36 |  | 0.081 | 0.23
